Antibody titer data for 1 substance are collected here from patent US5871739.

For this assay, the target named is β-crystallin (containing about 10% βA3 -crystallin). Nature of the assay: ELISA of mouse sera in the same manner as in Experimental Example 2; anti-crystallin antibody titer, control group. The settings on record: scale: dilution ratio. On the technique in general: In an ELISA, binding on a coated surface is turned into a signal by an enzyme label.

For the substance “sera of control mice given PBS (Experimental Example 5) (polyclonal serum or antibody)”, the antibody titer was found to be 500.
